Test results reported in patent publication US20170313754A1 (PROTAGONIST THERAPEUTICS, published 2017).
Numbered stars: 1 amine (or outer) side, 2 acyl side, 3 side chain; on linkers, the order of the positions; unused ones are H or OH. Bridge positions count the residues as written; N and C are the ends. Square brackets hold non-standard residues; d marks the D form. Ends that are not written are not given here. * marks the point of attachment. Ida = iminodiacetic acid, O=C(CN(CC(=O)[*:3])[*:1])[*:2]; Lauroyl = CCCCCCCCCCCC(=O)*; Decanoyl = CCCCCCCCCC(=O)*; β3hP = O=C(O)C[C@@H]1CCCN1; Isovaleryl = CC(C)CC(=O)*; Octanoyl = CCCCCCCC(=O)*; Albu = not defined here; Hexanoyl = CCCCCC(=O)*; Butyryl = CCCC(=O)*

B1: Isovaleric acid-DTHAPCIKFEPRSKGWECK-NH2 (peptide)
peptide: Isovaleryl-DTHAPCIKFEPRSKGWECK-NH2
modifications: not fully specified (bridges); cysteine pairing not given here
B2: 4,4-5,5-6,6,6-Heptafluorohexanoic acid-DTHFPCIKFGPRSKGWVCK-NH2 (peptide)
peptide: {4,4‑5,5‑6,6,6‑heptafluorohexanoic acid}-DTHFPCIKFGPRSKGWVCK-NH2
modifications: disulfide 6-18 (inferred)
B3: Isovaleric acid-DTHFPCIKF-K(mysteric acid)-PRSKGWVC-NH2 (peptide)
peptide: DTHFPCIKFKPRSKGWVC
modifications: not fully specified; N-terminal isovaleric acid; K(mysteric acid) at Lys 10; C-terminal amide
B4: Isovaleric acid-DTHFPCIKF-K(lauric acid)-PRSKGWVC-NH2 (peptide)
peptide: DTHFPCIKFKPRSKGWVC
modifications: not fully specified; N-terminal isovaleric acid; K(lauric acid) at Lys 10; C-terminal amide
B5: Isovaleric acid-DTHFPCIKF-K(decanoic acid)-PRSKGWVC-NH2 (peptide)
peptide: DTHFPCIKFKPRSKGWVC
modifications: N-terminal isovaleric acid; K(decanoic acid) at Lys 10; C-terminal amide
B6: Isovaleric acid-DTHFPCIKF-K(octanoic acid)-PRSKGWVC-NH2 (peptide)
peptide: DTHFPCIKFKPRSKGWVC
modifications: not fully specified; N-terminal isovaleric acid; K(octanoic acid) at Lys 10; C-terminal amide
B7: Isovaleric acid-DTHFPCIKF-K(hexanoic acid)-PRSKGWVC-NH2 (peptide)
peptide: DTHFPCIKFKPRSKGWVC
modifications: N-terminal isovaleric acid; K(hexanoic acid) at Lys 10; C-terminal amide
B8: Isovaleric acid-DTHFPCIKF-K(butyric acid)-PRSKGWVC-NH2 (peptide)
peptide: DTHFPCIKFKPRSKGWVC
modifications: N-terminal isovaleric acid; K(butyric acid) at Lys 10; C-terminal amide
B9: Isovaleric acid-DTHFPCIKF-K(Ac)-PRSKGWVC-NH2 (peptide)
peptide: DTHFPCIKFKPRSKGWVC
modifications: N-terminal isovaleric acid; K(Ac) at Lys 10; C-terminal amide
B10: Ida-THFPCIKFEPRSKGWVC-K(mysteric acid)-NH2 (peptide)
peptide: [Ida]THFPCIKFEPRSKGWVCK(mysteric acid)-NH2
modifications: disulfide 6-18 (inferred)
B11: [Ida]-THFPCIKFEPRSKGWVC-K(lauric acid)-NH2 (peptide)
peptide: [Ida]THFPCIKFEPRSKGWVCK(Lauroyl)-NH2
modifications: disulfide 6-18 (inferred)
B12: [Ida]-THFPCIKFEPRSKGWVC-K(decanoic acid)-NH2 (peptide)
peptide: [Ida]THFPCIKFEPRSKGWVCK(Decanoyl)-NH2
modifications: disulfide 6-18 (inferred)
B13: [Ida]-THFPCIKFEPRSKGWVC-K(octanoic acid)-NH2 (peptide)
peptide: [Ida]THFPCIKFEPRSKGWVCK(Octanoyl)-NH2
modifications: not fully specified (bridges); cysteine pairing not given here
B14: [Ida]-THFPCIKFEPRSKGWVC-K(hexanoic acid)-NH2 (peptide)
peptide: [Ida]THFPCIKFEPRSKGWVCK(Hexanoyl)-NH2
modifications: disulfide 6-18 (inferred)
B15: [Ida]-THFPCIKFEPRSKGWVC-K(butyric acid)-NH2 (peptide)
peptide: [Ida]THFPCIKFEPRSKGWVCK(Butyryl)-NH2
modifications: disulfide 6-18 (inferred)
B16: [Ida]-THFPCIKFEPRSKGWVC-K(Ac)-NH2 (peptide)
peptide: [Ida]THFPCIKFEPRSKGWVCK(Ac)-NH2
modifications: disulfide 6-18 (inferred)
B17: Isovaleric acid-HFPCIKFEPRSKGWVC-K(octanoic acid)-NH2 (peptide)
peptide: Isovaleryl-HFPCIKFEPRSKGWVCK(Octanoyl)-NH2
modifications: disulfide 4-16 (inferred)
B18: Isovaleric acid-DTHFPCIKFEPHS-K(Albu)-GCK-NH2 (peptide)
peptide: Isovaleryl-DTHFPCIKFEPHSK(Albu)GCK-NH2
modifications: not fully specified (bridges); cysteine pairing not given here; reading uncertain
B19: Hy-DTHFPIAIFAAGICI-NH2 (peptide)
peptide: H-DTHFPIAIFAAGICI-NH2
B20: Hy-DTHFPIAIFAAICI-NH2 (peptide)
peptide: H-DTHFPIAIFAAICI-NH2
B21: Hy-DTHFPIAIFAICI-NH2 (peptide)
peptide: H-DTHFPIAIFAICI-NH2
B22: Hy-DTHFPIAIFICI-NH2 (peptide)
peptide: H-DTHFPIAIFICI-NH2
B23: Hy-DTHFPIAIICI-NH2 (peptide)
peptide: H-DTHFPIAIICI-NH2
B24: Hy-DTHFPIAICI-NH2 (peptide)
peptide: H-DTHFPIAICI-NH2
B25: Hy-DTHFPIICI-NH2 (peptide)
peptide: H-DTHFPIICI-NH2
B26: Hy-DTHICIAIF-NH2 (peptide)
peptide: H-DTHICIAIF-NH2
B27: Hy-DTHCPIAIF-NH2 (peptide)
peptide: H-DTHCPIAIF-NH2
B28: Hy-DTHFPCIIA-NH2 (peptide)
peptide: H-DTHFPCIIA-NH2
B29: Hy-DTHFPCAIF-NH2 (peptide)
peptide: H-DTHFPCAIF-NH2
B30: Hy-DTHFACIIF-NH2 (peptide)
peptide: H-DTHFACIIF-NH2
B31: Hy-DTHF-(D)-Ala-CIIF-NH2 (peptide)
peptide: H-DTHF[dA]CIIF-NH2
SMILES: CC[C@H](C)[C@H](NC(=O)[C@H](CS)NC(=O)[C@@H](C)NC(=O)[C@H](Cc1ccccc1)NC(=O)[C@H](Cc1c[nH]cn1)NC(=O)[C@@H](NC(=O)[C@@H](N)CC(=O)O)[C@@H](C)O)C(=O)N[C@H](C(=O)N[C@@H](Cc1ccccc1)C(N)=O)[C@@H](C)CC
B32: Hy-DTHAPCIIF-NH2 (peptide)
peptide: H-DTHAPCIIF-NH2
B33: Hy-DTAFPCIIF-NH2 (peptide)
peptide: H-DTAFPCIIF-NH2
B34: Hy-ATHFPCIIF-NH2 (peptide)
peptide: H-ATHFPCIIF-NH2
B35: [Ida]-THF-[bhPro]-CIIF-NH2 (peptide)
peptide: [Ida]THF[β3hP]CIIF-NH2
B36: Hy-DTHFPCIEF-NH2 (peptide)
peptide: H-DTHFPCIEF-NH2
B37: Hy-DTHFPCIEF-NH2 (peptide)
peptide: H-DTHFPCIEF-NH2

target: T1, human ferroportin (SLC40A1) fused in frame with GFP, stably expressed in HEK293 cells (human, UniProt Q9NP59 1-571); experiment: cell-based or functional assay
T1 sequence (looked up): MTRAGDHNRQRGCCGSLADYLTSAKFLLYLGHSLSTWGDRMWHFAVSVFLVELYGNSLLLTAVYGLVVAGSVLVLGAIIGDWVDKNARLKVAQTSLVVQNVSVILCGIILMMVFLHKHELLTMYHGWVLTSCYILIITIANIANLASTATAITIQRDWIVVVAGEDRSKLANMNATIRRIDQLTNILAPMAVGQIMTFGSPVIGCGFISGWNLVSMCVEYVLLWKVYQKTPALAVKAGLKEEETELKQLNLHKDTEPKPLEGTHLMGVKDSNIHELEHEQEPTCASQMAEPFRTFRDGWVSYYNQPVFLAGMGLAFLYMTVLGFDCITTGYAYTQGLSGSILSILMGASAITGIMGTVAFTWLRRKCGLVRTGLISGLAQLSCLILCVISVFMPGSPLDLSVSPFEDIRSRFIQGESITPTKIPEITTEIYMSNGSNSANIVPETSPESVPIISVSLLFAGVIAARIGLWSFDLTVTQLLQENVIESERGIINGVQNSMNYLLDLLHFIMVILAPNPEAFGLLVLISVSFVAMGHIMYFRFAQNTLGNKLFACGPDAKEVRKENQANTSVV

Question: Which “Potency EC50 (nM), ferroportin-GFP internalization/degradation” value does the source give for B1 here?
Answer: > 10000 nM

Question: Which “Potency EC50 (nM), ferroportin-GFP internalization/degradation” value does the source give for B2 here?
Answer: 480 nM

Question: For B3, which “Potency EC50 (nM), ferroportin-GFP internalization/degradation” value is on record?
Answer: 7 nM

Question: B4 was tested. Which “Potency EC50 (nM), ferroportin-GFP internalization/degradation” value did it give?
Answer: 10 nM

Question: For B5, which “Potency EC50 (nM), ferroportin-GFP internalization/degradation” value is on record?
Answer: 22 nM

Question: Which “Potency EC50 (nM), ferroportin-GFP internalization/degradation” value does the source give for B6 here?
Answer: 30 nM

Question: For B7, which “Potency EC50 (nM), ferroportin-GFP internalization/degradation” value is on record?
Answer: 21 nM

Question: Which “Potency EC50 (nM), ferroportin-GFP internalization/degradation” value does the source give for B8 here?
Answer: 37 nM

Question: Which “Potency EC50 (nM), ferroportin-GFP internalization/degradation” value does the source give for B9 here?
Answer: 29 nM

Question: For B10, which “Potency EC50 (nM), ferroportin-GFP internalization/degradation” value is on record?
Answer: 20 nM

Question: Which “Potency EC50 (nM), ferroportin-GFP internalization/degradation” value does the source give for B11 here?
Answer: 52 nM

Question: With B12 as the binder, how does the “Potency EC50 (nM), ferroportin-GFP internalization/degradation” value read?
Answer: 116 nM

Question: How did the “Potency EC50 (nM), ferroportin-GFP internalization/degradation” value turn out when B13 was run?
Answer: 129 nM

Question: How did the “Potency EC50 (nM), ferroportin-GFP internalization/degradation” value turn out when B14 was run?
Answer: 191 nM

Question: Which “Potency EC50 (nM), ferroportin-GFP internalization/degradation” value does the source give for B15 here?
Answer: 355 nM

Question: Which “Potency EC50 (nM), ferroportin-GFP internalization/degradation” value does the source give for B16 here?
Answer: 502 nM

Question: With B17 as the binder, how does the “Potency EC50 (nM), ferroportin-GFP internalization/degradation” value read?
Answer: > 300 nM

Question: Which “Potency EC50 (nM), ferroportin-GFP internalization/degradation” value does the source give for B18 here?
Answer: 6 nM

Question: B19 was tested. Which “Potency EC50 (nM), ferroportin-GFP internalization/degradation” value did it give?
Answer: > 10000 nM

Question: For B20, which “Potency EC50 (nM), ferroportin-GFP internalization/degradation” value is on record?
Answer: > 10000 nM

Question: Which “Potency EC50 (nM), ferroportin-GFP internalization/degradation” value does the source give for B21 here?
Answer: > 10000 nM

Question: B22 was tested. Which “Potency EC50 (nM), ferroportin-GFP internalization/degradation” value did it give?
Answer: > 10000 nM

Question: Which “Potency EC50 (nM), ferroportin-GFP internalization/degradation” value does the source give for B23 here?
Answer: > 10000 nM

Question: How did the “Potency EC50 (nM), ferroportin-GFP internalization/degradation” value turn out when B24 was run?
Answer: > 10000 nM

Question: B25 was tested. Which “Potency EC50 (nM), ferroportin-GFP internalization/degradation” value did it give?
Answer: > 10000 nM

Question: With B26 as the binder, how does the “Potency EC50 (nM), ferroportin-GFP internalization/degradation” value read?
Answer: > 10000 nM

Question: With B27 as the binder, how does the “Potency EC50 (nM), ferroportin-GFP internalization/degradation” value read?
Answer: > 10000 nM

Question: B28 was tested. Which “Potency EC50 (nM), ferroportin-GFP internalization/degradation” value did it give?
Answer: > 1000 nM

Question: Which “Potency EC50 (nM), ferroportin-GFP internalization/degradation” value does the source give for B29 here?
Answer: > 1000 nM

Question: How did the “Potency EC50 (nM), ferroportin-GFP internalization/degradation” value turn out when B30 was run?
Answer: > 1000 nM

Question: How did the “Potency EC50 (nM), ferroportin-GFP internalization/degradation” value turn out when B31 was run?
Answer: > 10000 nM

Question: Which “Potency EC50 (nM), ferroportin-GFP internalization/degradation” value does the source give for B32 here?
Answer: > 10000 nM

Question: B33 was tested. Which “Potency EC50 (nM), ferroportin-GFP internalization/degradation” value did it give?
Answer: 739 nM

Question: How did the “Potency EC50 (nM), ferroportin-GFP internalization/degradation” value turn out when B34 was run?
Answer: > 1000 nM

Question: How did the “Potency EC50 (nM), ferroportin-GFP internalization/degradation” value turn out when B35 was run?
Answer: > 1000 nM

Question: B36 was tested. Which “Potency EC50 (nM), ferroportin-GFP internalization/degradation” value did it give?
Answer: > 1000 nM

Question: How did the “Potency EC50 (nM), ferroportin-GFP internalization/degradation” value turn out when B37 was run?
Answer: > 1000 nM
